Biological target: 14-3-3η (UniProt P68511)
Assay: GST pull-down from cell lysate
Settings: reference: lysate with phosphatase inhibitors (PhosStop); sites S2845

binding against the reference: weaker
Substance: Bassoon Bsn28, 2715-3013 (from UniProt O88778) lysate treated with alkaline phosphatase

— PMC3597591
